Patent publication US20220298215A1

Biological target: glucagon-like peptide 1 (GLP-1) receptor
Assay: cell-based or functional assay

glucagon-like peptide 1 (GLP-1) receptor, sequence (P43220 24-463): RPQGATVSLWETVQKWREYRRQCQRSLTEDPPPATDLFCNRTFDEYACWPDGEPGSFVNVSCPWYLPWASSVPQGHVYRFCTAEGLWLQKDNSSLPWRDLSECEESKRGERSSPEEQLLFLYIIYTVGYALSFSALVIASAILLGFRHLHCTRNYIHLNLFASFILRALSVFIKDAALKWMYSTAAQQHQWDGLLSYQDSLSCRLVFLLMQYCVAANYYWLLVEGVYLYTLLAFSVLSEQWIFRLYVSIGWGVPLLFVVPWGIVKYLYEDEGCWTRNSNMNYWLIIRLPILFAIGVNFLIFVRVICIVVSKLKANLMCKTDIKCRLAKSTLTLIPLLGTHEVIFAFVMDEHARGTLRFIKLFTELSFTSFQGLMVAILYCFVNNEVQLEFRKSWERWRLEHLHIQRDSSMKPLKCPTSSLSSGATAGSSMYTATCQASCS

Dulaglutide (Fc fusion)
EC50, CRE-luciferase reporter in HEK293-GLP1R-CRE-Luc cells: 23.7 pM
